The values below come from US10729634B2, “Sex hormone-binding globulin for use as a medicament” (FUNDACIÓ HOSPITAL UNIVERSITARI VALL D'HEBRON—INSTITUT DE …, priority 2013, dated 2020).

The test system of assay [1] is human mature adipocytes from obese subjects. Nature of the assay: Lipolysis assay (glycerol release) in human mature adipocytes. Format: cell-based. As to conditions: SHBG 10 nM and 30 nM, 16h incubation, vs control buffer. As to the method:
A similar in vitro experiment as in Example 1 was performed but using human mature adipocytes from obese subjects instead of the HepG2 cells.
The cells were maintained in DMEM supplemented with 10% foetal bovine serum (FBS) and antibiotics, cultured to confluence, washed and incubated with Lipolysis Assay Buffer containing vehicle (control—C), Isoproterenol (positive control—ISO, 3 μM) or SHBG at different final cell culture concentrations (10 nM and 30 nM). SHBG was from native human protein purified from healthy human serums (it included the amino acid sequence SEQ ID NO: 1). After 16h incubation, media was collected and glycerol concentration was assessed using a Glycerol Detection Kit (Zenbio).

Assay [2] deals with human SHBG transgenic mice (shbg). Nature of the assay: High fructose diet in human SHBG transgenic mice vs wild-type. To be noted: high fructose diet (76% fructose) for 8 weeks, shbg vs WT mice. Format: in vivo. An excerpt: For this experiment there were used C57BL/6 mice (WT, controls) and human SHBG transgenic mice (shbg) but not obese.
SHBG transgenic mice were obtained as disclosed above and according to Jänne et al, “Human Sex-Hormone-Binding Globulin Gen Expression in Transgenic Mice”, Molecular Endocrinology—1998, Vol. No. 12 (1), pp: 123-136 (supra).
Wild-type (WT) mice and shbg mice were fed with a high fructose diet. (76% fructose) for 8 weeks. Afterwards, they were sacrificed and liver biopsies were analyzed to see total triglyceride (TG) accumulation in both animal types.
Total triglyceride detection was measured using a triglyceride assay kit (Cat. #K622-100 BioVision) following the manufacturer's instructions.
As in Example 3.4 and following the same protocol, lipogenesis was studied by determining the mRNA and protein levels of acetyl-CoA carboxylase (ACC) and fatty acid synthase (FAS). Data from this analysis are illustrated in FIG. 18, panels (C) and (D).

Assay [3] relates to HepG2 hepatoblastoma cells. Nature of the assay: Lipolysis assay (glycerol release) in HepG2 cells. Format: cell-based, human. To be noted: SHBG 2.5 nM, 10 nM and 50 nM, 16h incubation, vs vehicle control. The method, then: Cell culture experiments. Cell culture reagents were from Life Technologies Inc (Invitrogen SA). HepG2 hepatoblastoma cells (catalog no. HB-8065; ATCC) were maintained in DMEM supplemented with 10% foetal bovine serum (FBS) and antibiotics. For experiments, HepG2 cells were cultured to 60%-80% confluence, cells were washed and incubated with Lipolysis Assay Buffer containing vehicle (control—C), Isoproterenol (positive control—ISO, 3 μM) or SHBG at different final cell culture concentrations (2.5 nM, 10 nM and 50 nM). SHBG was from native human protein purified from healthy human serums (it included the amino acid sequence SEQ ID NO: 1). After 16h incubation, media was collected and glycerol concentration was assessed using a Glycerol Detection Kit (Zenbio).
The data are depicted in FIG. 1, wherein the bars indicate the levels of glycerol (Gly) for each assayed sample. Glycerol is a direct measure of the lipolysis level, since is the product obtained when triglycerides are decomposed chemically or enzymatically to glycerol and fatty acids.

Assay [4] relates to human SHBG transgenic mice (shbg). Nature of the assay: High lipid diet in human SHBG transgenic mice vs wild-type. As to conditions: shbg vs WT mice. Format: in vivo. The method, then:
Wild-type (WT) mice and shbg-mice as in Example 5 were fed with a high lipid diet (50% lipids, from which 46% pig butter and 4% soybean fat) for 8 weeks.
Weight increase along weeks was followed and plotted in FIG. 19 (A), wherein the weight in grams of mice is plotted per week after consumption of the fat diet.
Once mice were sacrificed, visceral adipose tissue (VAT in grams) was analyzed in both animal types. […] VAT was determined as follows: all visceral fat was removed from the animals and it was weighed in a precision balance.

The next assay has as its system HepG2 cells. As to the kind of experiment: SHBG over-expression (pCMV-SHBG) in stably transfected HepG2 cells. Format: cell-based, human. As to conditions: SHBG over-expressed (pCMV-SHBG) vs pCMV control. An excerpt: In order to elucidate a possible mechanism of action of the SHBG, HepG2 cells (catalog no. HB-8065; ATCC) maintained in DMEM supplemented with 10% FBS and antibiotics) were stably transfected with a vector expressing SHBG (pCMV-SHBG). The vector pCMV-SHBG and the control (pCMV-empty) were the ones used and mentioned in several publications, being the first in Bocchinfuso W P et al. “Expression and differential glycosylation of human sex hormone-binding globulin by mammalian cell lines”, Mol Endocrinol-1991, Vol. No. 5(11)., pp. 1723-1729.
From all panels in FIG. 20 it can be deduced that SHBG regulates hepatocyte lipid content by modulating ACC levels in HepG2 cells. (a) SHBG mRNA levels were determined in relation to 18S RNA in pCMV and pCMV-SHBG stably transfected HepG2 cells (FIG. 20 a). SHBG protein accumulation in the medium was measured using an ELISA in pCMV and pCMV-SHBG stably transfected HepG2 cells (FIG. 20 b). ACC mRNA levels were determined in relation to 18S mRNA in pCMV and pCMV-SHBG stably transfected HepG2 cells (FIG. 20 c). SHBG mRNA levels were determined in relation to 18S RNA in shControl and shSHBG stably transfected HepG2 cells (FIG. 20 d). SHBG protein accumulation in the medium was measured using an ELISA in shControl and shSHBG stably transfected HepG2 cells (FIG. 20 e). […]

B1: SHBG: native human protein purified from healthy human serums (included SEQ ID NO: 1); in mice and HepG2 expressed from human shbg transgene/vector (protein, listed as Homo sapiens)
chain: MESRGPLATSRLLLLLLLLLLRHTRQGWALRPVLPTQSAHDPPAVHLSNGPGQEPIAVMTFDLTKITKTSSSFEVRTWDPEGVIFYGDTNPKDDWFMLGLRDGRPEIQLHNHWAQLTVGAGPRLDDGRWHQVEVKMEGDSVLLEVDGEEVLRLRQVSGPLTSKRHPIMRIALGGLLFPASNLRLPLVPALDGCLRRDSWLDKQAEISASAPTSLRSCDVESNPGIFLPPGTQAEFNLRDIPQPHAEPWAFSLDLGLKQAAGSGHLLALGTPENPSWLSLHLQDQKVVLSSGSGPGLDLPLVLGLPLQLKLSMSRVVLSQGSKMKALALPPLGLAPLLNLWAKPQGRLFLGALPGEDSSTSFCLNGLWAQGQRLDVDQALNRSHEIWTHSCPQSPGNGTDASH
As for B1, the “final glycerol concentration (lipolysis)” value in assay [1] was “greater than the observed in the non-treated mature adipocytes”. In assay [2], the fatty liver disease entry is listed as “Protects Against Fatty Liver Disease” and the “triglyceride amount in liver” value is “higher in WT mice than in the transgenic ones (shbg)”. For the same molecule, the “lipolysis (glycerol concentration in medium)” value in assay [3] is on record as “increased the lipolysis in HepG2 cells (in a dose-dependent manner)”. In addition, the “visceral adipose tissue (VAT)” value in assay [4] (high lipid diet (50% lipids) for 8 weeks) is “wild-type mice had a greater visceral adipose tissue than transgenic animals”. In assay [4] (high lipid diet (50% lipids)), the “body weight along weeks” value is reported as “always a lower weight than wild-type mice” and the obesity entry is listed as “Protects Against Obesity”. For the same molecule, in the assay with HepG2 cells, the ACC expression result was “the expression of ACC is reduced” and the “total TG content” value is reported as “the total TG is reduced”.
